Measurements as given in patent US20100129369A1 (Eli Lilly, published 2010).

Assays:
Human c-Met-Flis-Fc ECD [1] = target: T1, Human c-Met-Flis-Fc ECD (human); assay: ELISA, coated ECD-Fc, antibody 0.000 ng/mL
T1 construct: also called human c-Met extracellular domain (ECD)-Fc-Flis fusion; Human cMet-ECD-Fc-Flis
Description: (§1) Wells of 96-well EIA/RIA high binding plates (Costar, #2592) are coated with 100 μL of 1 μg/mL human c-Met extracellular domain (ECD)-Fc-Flis fusion (SEQ ID NO:72), RON-ECD-Fc (R&D Systems, #1947-MS), or PlexinA2-ECD-Fc (Abnova, Taipei, Taiwan #H00005362-P01) in coating buffer (BioFX Labs, # COAT-1000-01) overnight at 4° C. […] After the plates are washed, 100 μL/well of substrate solution (BioFx, #TMBW-1000-01) are added and the plates are incubated for 10 min. at room temperature. 100 μL/well of stop solution (BioFx, # LSTP-1000-01) are added to stop the reaction. The colorimetric signals are developed and read at 450 nm using a SpectraMax 190 plate reader (Molecular Devices, Sunnyvale, Calif.). c-Met antibody binding to c-Met, RON and PlexinA2 ECDs is proportional to color signal production.

Human c-Met-Flis-Fc ECD [2] = target: T1, Human c-Met-Flis-Fc ECD; assay: ELISA, coated ECD-Fc, antibody 0.002 ng/mL
Description: as §1

Human c-Met-Flis-Fc ECD [3] = target: T1, Human c-Met-Flis-Fc ECD; assay: ELISA, coated ECD-Fc, antibody 0.010 ng/mL
Description: as §1

Human c-Met-Flis-Fc ECD [4] = target: T1, Human c-Met-Flis-Fc ECD; assay: ELISA, coated ECD-Fc, antibody 0.060 ng/mL
Description: as §1

Human c-Met-Flis-Fc ECD [5] = target: T1, Human c-Met-Flis-Fc ECD; assay: ELISA, coated ECD-Fc, antibody 0.357 ng/mL
Description: as §1

Human c-Met-Flis-Fc ECD [6] = target: T1, Human c-Met-Flis-Fc ECD; assay: ELISA, coated ECD-Fc, antibody 2.143 ng/mL
Description: as §1

Human c-Met-Flis-Fc ECD [7] = target: T1, Human c-Met-Flis-Fc ECD; assay: ELISA, coated ECD-Fc, antibody 12.860 ng/mL
Description: as §1

Human c-Met-Flis-Fc ECD [8] = target: T1, Human c-Met-Flis-Fc ECD; assay: ELISA, coated ECD-Fc, antibody 77.160 ng/mL
Description: as §1

Human c-Met-Flis-Fc ECD [9] = target: T1, Human c-Met-Flis-Fc ECD; assay: ELISA, coated ECD-Fc, antibody 462.963 ng/mL
Description: as §1

Human c-Met-Flis-Fc ECD [10] = target: T1, Human c-Met-Flis-Fc ECD; assay: ELISA, coated ECD-Fc, antibody 2777.778 ng/mL
Description: as §1

Human c-Met-Flis-Fc ECD [11] = target: T1, Human c-Met-Flis-Fc ECD; assay: ELISA, coated ECD-Fc, antibody 16666.667 ng/mL
Description: as §1

Human c-Met-Flis-Fc ECD [12] = target: T1, Human c-Met-Flis-Fc ECD; assay: ELISA, coated ECD-Fc, antibody 100000.000 ng/mL
Description: as §1

Human c-Met-Flis-Fc ECD [13] = target: T1, Human c-Met-Flis-Fc ECD; assay: SPR Biacore, antibody captured, ECD-Fc analyte, 1:1 model
Description: (§2) A Biacore® 2000 instrument is used to measure the binding kinetics of c-Met antibodies to human, cynomolgus monkey, and rat c-Met ECDs. Measurements are performed at 25° C. Samples are dissolved in HBS-EP buffer (150 mM sodium chloride, 3 mM EDTA, 0.005% (w/v) surfactant P-20, and 10 mM N-2-hydroxyethylpiperazine-N′-2-ethanesulfonic acid (HEPES) at pH 7.4; #BR-1001-88).
(§3) Binding is evaluated using multiple cycles. Each cycle is performed at a flow rate of 50 μL/min., and consists of the following steps: injection of about 10 μL of a c-Met antibody at 10 μg/mL aiming at a capture of 40-100 RUs, injection of 250 μL of human, cynomolgus, or rat c-Met-Flis-Fc ECD (starting at 100 nM and using two-fold serial dilutions for each cycle) followed by 20 min. for dissociation, and regeneration using about 30 μL of 10 mM glycine hydrochloride, pH 1.5. Association and dissociation rates for each cycle are evaluated using a “1:1 (Langmuir) binding” model in the BIAevaluation software, version 4.1.

[14] = target: T2, Cynomolgus Monkey c-Met-Flis-Fc ECD (cynomolgus monkey); assay: as above
T2 construct: also called Cynomolgus Monkey cMet-ECD-Fc-Flis; cynomolgus monkey c-Met ECD
Description: as §2, §3

Rat c-Met-Flis-Fc ECD [15] = target: T3, Rat c-Met-Flis-Fc ECD (rat); assay: SPR Biacore, antibody captured, heterogeneous ligand model, first affinity
T3 construct: also called Rat cMet-ECD-Fc-Flis; rat c-Met ECD
Description: as §2
(§4) Binding is evaluated using multiple cycles. Each cycle is performed at a flow rate of 50 μL/min., and consists of the following steps: injection of about 10 μL of a c-Met antibody at 10 μg/mL aiming at a capture of 40-100 RUs, injection of 250 μL of human, cynomolgus, or rat c-Met-Flis-Fc ECD (starting at 100 nM and using two-fold serial dilutions for each cycle) followed by 20 min. for dissociation, and regeneration using about 30 μL of 10 mM glycine hydrochloride, pH 1.5. […]

Rat c-Met-Flis-Fc ECD [16] = target: T3, Rat c-Met-Flis-Fc ECD; assay: SPR Biacore, antibody captured, heterogeneous ligand model, second affinity
Description: as §2, §4

human c-Met [17] = target: T4, human c-Met (human, UniProt P08581 25-1390); assay: cell-based or functional assay
human c-Met [18] = target: T4, human c-Met; assay: cell-based or functional assay; remark: listed apart in the source
human c-Met [19] = target: T4, human c-Met; assay: cell-based or functional assay; remark: listed apart in the source
human c-Met [20] = target: T4, human c-Met; assay: cell-based or functional assay; remark: listed apart in the source
human c-Met [21] = target: T4, human c-Met; assay: cell-based or functional assay; remark: listed apart in the source

T3 sequence (chain, as listed by the source limits assumed): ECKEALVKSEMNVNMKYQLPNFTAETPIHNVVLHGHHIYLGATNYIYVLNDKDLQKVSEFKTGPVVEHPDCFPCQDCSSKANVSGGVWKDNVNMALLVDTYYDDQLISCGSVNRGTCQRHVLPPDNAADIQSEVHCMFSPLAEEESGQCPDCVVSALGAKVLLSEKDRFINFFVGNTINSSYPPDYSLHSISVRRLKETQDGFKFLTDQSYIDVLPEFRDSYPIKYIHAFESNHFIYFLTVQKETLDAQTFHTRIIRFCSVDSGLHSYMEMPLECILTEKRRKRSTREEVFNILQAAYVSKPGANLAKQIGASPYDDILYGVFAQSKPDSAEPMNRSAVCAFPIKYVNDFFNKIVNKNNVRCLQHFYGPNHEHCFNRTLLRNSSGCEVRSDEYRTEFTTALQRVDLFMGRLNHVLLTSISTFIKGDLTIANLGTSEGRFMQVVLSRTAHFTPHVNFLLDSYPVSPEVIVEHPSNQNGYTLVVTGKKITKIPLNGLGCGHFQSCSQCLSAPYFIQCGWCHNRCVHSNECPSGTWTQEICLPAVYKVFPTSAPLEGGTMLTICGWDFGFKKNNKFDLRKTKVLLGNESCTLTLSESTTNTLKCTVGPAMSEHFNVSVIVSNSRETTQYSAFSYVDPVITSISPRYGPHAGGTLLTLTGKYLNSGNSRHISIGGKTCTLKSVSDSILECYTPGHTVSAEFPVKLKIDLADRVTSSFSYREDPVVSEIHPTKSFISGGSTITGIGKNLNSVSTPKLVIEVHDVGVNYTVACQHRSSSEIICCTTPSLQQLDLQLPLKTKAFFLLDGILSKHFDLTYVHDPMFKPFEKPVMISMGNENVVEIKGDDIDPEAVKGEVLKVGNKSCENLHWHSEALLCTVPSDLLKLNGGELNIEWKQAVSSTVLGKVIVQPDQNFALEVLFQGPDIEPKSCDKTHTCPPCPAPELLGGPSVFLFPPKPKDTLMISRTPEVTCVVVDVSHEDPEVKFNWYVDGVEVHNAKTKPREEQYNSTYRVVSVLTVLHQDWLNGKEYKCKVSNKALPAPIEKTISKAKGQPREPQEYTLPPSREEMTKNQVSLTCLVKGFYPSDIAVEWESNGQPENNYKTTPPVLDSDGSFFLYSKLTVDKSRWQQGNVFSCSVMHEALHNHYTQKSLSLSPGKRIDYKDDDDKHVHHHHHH
T4 sequence (P08581 25-1390): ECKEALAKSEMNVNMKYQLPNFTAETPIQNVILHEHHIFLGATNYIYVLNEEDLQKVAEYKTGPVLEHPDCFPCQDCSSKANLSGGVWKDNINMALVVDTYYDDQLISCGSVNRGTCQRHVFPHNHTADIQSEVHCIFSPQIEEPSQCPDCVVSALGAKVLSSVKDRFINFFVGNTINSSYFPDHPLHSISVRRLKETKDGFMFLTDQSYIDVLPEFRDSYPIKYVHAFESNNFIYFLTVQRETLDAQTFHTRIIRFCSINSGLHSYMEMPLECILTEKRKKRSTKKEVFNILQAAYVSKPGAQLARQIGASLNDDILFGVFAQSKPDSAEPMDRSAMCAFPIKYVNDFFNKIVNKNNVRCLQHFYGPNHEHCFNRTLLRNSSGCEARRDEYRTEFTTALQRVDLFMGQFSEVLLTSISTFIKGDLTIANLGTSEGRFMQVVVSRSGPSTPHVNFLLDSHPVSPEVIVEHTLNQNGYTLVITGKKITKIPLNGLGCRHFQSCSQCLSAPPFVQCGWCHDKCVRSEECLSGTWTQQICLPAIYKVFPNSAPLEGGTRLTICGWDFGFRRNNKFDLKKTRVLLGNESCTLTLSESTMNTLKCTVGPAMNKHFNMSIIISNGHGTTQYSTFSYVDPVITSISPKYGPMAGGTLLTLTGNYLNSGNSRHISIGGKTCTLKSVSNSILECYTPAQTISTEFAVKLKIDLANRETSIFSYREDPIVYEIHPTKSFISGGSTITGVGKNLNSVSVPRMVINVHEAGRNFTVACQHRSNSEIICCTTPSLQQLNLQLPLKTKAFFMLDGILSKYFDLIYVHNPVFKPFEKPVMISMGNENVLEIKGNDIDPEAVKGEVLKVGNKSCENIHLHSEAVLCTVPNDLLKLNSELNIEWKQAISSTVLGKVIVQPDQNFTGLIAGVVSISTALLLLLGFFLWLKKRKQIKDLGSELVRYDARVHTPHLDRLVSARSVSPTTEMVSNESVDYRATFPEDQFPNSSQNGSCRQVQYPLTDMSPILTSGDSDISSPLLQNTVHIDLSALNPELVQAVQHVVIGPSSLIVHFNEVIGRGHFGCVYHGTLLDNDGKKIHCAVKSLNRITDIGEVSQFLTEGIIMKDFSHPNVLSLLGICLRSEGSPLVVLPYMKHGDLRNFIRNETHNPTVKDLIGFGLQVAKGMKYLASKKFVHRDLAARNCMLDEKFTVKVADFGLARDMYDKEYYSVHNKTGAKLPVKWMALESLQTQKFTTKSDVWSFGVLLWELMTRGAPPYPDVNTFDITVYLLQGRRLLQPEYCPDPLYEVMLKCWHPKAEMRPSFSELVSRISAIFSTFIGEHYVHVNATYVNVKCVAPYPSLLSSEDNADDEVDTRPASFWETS
T2 sequence (chain, as listed by the source limits assumed): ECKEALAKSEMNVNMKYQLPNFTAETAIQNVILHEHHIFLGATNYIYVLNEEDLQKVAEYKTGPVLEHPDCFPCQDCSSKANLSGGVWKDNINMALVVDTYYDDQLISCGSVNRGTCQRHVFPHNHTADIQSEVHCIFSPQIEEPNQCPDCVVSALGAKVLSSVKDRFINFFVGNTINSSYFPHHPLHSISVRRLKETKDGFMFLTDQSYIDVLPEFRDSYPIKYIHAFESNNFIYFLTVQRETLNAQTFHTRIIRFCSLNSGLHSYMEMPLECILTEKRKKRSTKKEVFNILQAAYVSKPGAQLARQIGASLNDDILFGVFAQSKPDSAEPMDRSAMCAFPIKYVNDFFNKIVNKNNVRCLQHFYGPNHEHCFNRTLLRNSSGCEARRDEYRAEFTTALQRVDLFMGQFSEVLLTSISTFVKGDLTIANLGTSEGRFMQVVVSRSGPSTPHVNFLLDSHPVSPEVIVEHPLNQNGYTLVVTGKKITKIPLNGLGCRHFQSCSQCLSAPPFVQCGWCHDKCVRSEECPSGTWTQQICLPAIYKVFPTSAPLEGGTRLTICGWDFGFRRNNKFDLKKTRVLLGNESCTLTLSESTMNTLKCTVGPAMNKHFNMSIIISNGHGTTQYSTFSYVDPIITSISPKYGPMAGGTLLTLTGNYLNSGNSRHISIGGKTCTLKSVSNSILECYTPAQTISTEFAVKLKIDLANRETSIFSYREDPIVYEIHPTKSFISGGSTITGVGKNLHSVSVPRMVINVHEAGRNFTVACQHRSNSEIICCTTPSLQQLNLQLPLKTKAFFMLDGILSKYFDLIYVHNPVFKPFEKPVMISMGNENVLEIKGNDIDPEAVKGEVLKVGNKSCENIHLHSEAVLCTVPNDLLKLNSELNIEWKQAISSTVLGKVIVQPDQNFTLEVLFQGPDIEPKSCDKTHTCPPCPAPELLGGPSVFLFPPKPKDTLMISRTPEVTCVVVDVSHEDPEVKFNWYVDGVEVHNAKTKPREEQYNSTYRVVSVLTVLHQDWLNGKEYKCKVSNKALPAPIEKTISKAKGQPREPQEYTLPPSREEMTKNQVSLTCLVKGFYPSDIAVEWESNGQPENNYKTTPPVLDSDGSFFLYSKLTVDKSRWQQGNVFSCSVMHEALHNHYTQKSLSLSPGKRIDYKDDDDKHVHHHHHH
T1 sequence (chain, as listed by the source limits assumed): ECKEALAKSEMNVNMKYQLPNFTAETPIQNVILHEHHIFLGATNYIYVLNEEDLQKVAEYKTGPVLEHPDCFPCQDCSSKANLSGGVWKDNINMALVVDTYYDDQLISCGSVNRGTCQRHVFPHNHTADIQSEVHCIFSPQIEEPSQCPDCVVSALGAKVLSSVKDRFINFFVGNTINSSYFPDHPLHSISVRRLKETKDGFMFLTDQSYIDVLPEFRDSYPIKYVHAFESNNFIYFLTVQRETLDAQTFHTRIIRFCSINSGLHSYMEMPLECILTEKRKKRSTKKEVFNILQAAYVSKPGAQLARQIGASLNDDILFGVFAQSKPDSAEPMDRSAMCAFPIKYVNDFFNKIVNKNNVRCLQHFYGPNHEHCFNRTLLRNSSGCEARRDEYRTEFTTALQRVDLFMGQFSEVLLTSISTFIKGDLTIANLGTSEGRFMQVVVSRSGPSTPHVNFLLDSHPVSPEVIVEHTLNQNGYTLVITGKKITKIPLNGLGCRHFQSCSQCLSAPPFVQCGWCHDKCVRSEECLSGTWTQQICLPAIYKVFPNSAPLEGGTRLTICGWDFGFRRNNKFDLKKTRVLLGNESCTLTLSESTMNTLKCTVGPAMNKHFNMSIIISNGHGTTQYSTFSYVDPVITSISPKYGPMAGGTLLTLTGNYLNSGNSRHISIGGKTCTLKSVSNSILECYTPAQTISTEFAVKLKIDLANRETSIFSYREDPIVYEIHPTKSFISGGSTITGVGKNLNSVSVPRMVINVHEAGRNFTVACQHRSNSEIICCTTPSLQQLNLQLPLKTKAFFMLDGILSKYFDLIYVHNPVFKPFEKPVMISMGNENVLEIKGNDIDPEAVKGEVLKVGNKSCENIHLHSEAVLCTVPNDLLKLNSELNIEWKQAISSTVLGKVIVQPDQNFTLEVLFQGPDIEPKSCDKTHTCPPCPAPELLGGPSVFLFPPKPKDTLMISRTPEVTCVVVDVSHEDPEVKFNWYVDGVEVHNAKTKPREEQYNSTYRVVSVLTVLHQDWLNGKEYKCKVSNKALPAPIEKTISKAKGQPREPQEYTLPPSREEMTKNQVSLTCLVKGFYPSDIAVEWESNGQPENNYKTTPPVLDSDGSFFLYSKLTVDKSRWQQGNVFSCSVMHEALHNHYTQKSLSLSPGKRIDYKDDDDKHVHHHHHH

B1: D11-S17Y (antibody, human IgG2, kappa, V domains shown)
VH: QVQLVQSGAEVKKPGSSVKVSCKASGYTFTSRYIHWVRQAPGQGLEWMGWIYPVTGDTYYNEKFKGRVTITADKSTSTAYMELSSLRSEDTAVYYCARGYGAFYYWGQGTLVTVSS
VL: EIVLTQSPGTLSLSPGERATLSCSVSSSISSTNLHWYQQKPGQAPRLLIYGTSYLASGIPDRFSGSGSGTDFTLTISRLEPEDFAVYYCQQWSSYPYSFGQGTKLEIKR
notes: Human engineered IgG2, kappa
Average A450 nm (Human c-Met-Flis-Fc ECD [1]): 0.315 A450 nm
Average A450 nm (Human c-Met-Flis-Fc ECD [2]): 0.309 A450 nm
Average A450 nm (Human c-Met-Flis-Fc ECD [3]): 0.314 A450 nm
Average A450 nm (Human c-Met-Flis-Fc ECD [4]): 0.374 A450 nm
Average A450 nm (Human c-Met-Flis-Fc ECD [5]): 0.789 A450 nm
Average A450 nm (Human c-Met-Flis-Fc ECD [6]): 2.14 A450 nm
Average A450 nm (Human c-Met-Flis-Fc ECD [7]): 4 A450 nm
Average A450 nm (Human c-Met-Flis-Fc ECD [8]): 4 A450 nm
Average A450 nm (Human c-Met-Flis-Fc ECD [9]): 4 A450 nm
Average A450 nm (Human c-Met-Flis-Fc ECD [10]): 4 A450 nm
Average A450 nm (Human c-Met-Flis-Fc ECD [11]): 4 A450 nm
Average A450 nm (Human c-Met-Flis-Fc ECD [12]): 4 A450 nm
Kd (Human c-Met-Flis-Fc ECD [13]): 4.2 nM
koff (Human c-Met-Flis-Fc ECD [13]): 0.00028 s⁻¹
kon (Human c-Met-Flis-Fc ECD [13]): 70000 M⁻¹ s⁻¹
Kd [14]: 5.1 nM
koff [14]: 0.00036 s⁻¹
kon [14]: 70000 M⁻¹ s⁻¹
Kd (Rat c-Met-Flis-Fc ECD [15]): 286 nM
koff (Rat c-Met-Flis-Fc ECD [15]): 0.0189 s⁻¹
kon (Rat c-Met-Flis-Fc ECD [15]): 66000 M⁻¹ s⁻¹
Kd (Rat c-Met-Flis-Fc ECD [16]): 1.2 nM
koff (Rat c-Met-Flis-Fc ECD [16]): 0.0003 s⁻¹
kon (Rat c-Met-Flis-Fc ECD [16]): 250000 M⁻¹ s⁻¹

B2: C8-6 (antibody, human IgG2, kappa, V domains shown)
VH: QVQLVQSGAEVKKPGASVKVSCKASGYTFTDYYMHWVRQAPGQGLEWMGRVNPNRGGTTYNQKFEGRVTMTTDTSTSTAYMELRSLRSDDTAVYYCARTNWLDYWGQGTTVTVSS
VL: DIQMTQSPSSLSASVGDRVTITCSVSSSVSSIYLHWYQQKPGKAPKLLIYSTSNLASGVPSRFSGSGSGTDFTLTISSLQPEDFATYYCIQYSGYPLTFGGGTKVEIKR
3H-Thymidine Incorporation in Caki-1 Cells in the Absence of HGF (AVG CPM), antibody dose 0.1 ng/mL (human c-Met [17]): 16100 CPM
3H-Thymidine Incorporation in Caki-1 Cells in the Absence of HGF (AVG CPM), antibody dose 0.4 ng/mL (human c-Met [17]): 14600 CPM
3H-Thymidine Incorporation in Caki-1 Cells in the Absence of HGF (AVG CPM), antibody dose 2.6 ng/mL (human c-Met [17]): 14100 CPM
3H-Thymidine Incorporation in Caki-1 Cells in the Absence of HGF (AVG CPM), antibody dose 15.4 ng/mL (human c-Met [17]): 13700 CPM
3H-Thymidine Incorporation in Caki-1 Cells in the Absence of HGF (AVG CPM), antibody dose 92.6 ng/mL (human c-Met [17]): 12800 CPM
3H-Thymidine Incorporation in Caki-1 Cells in the Absence of HGF (AVG CPM), antibody dose 555.6 ng/mL (human c-Met [17]): 13500 CPM
3H-Thymidine Incorporation in Caki-1 Cells in the Absence of HGF (AVG CPM), antibody dose 3333.3 ng/mL (human c-Met [17]): 13200 CPM
3H-Thymidine Incorporation in Caki-1 Cells in the Absence of HGF (AVG CPM), antibody dose 20000.0 ng/mL (human c-Met [17]): 13200 CPM
3H-Thymidine Incorporation in Primary Human Hepatocytes in the Absence of HGF (average), dose 0.0032 ug/mL (human c-Met [18]): 736
3H-Thymidine Incorporation in Primary Human Hepatocytes in the Absence of HGF (average), dose 0.016 ug/mL (human c-Met [18]): 770
3H-Thymidine Incorporation in Primary Human Hepatocytes in the Absence of HGF (average), dose 0.08 ug/mL (human c-Met [18]): 792
3H-Thymidine Incorporation in Primary Human Hepatocytes in the Absence of HGF (average), dose 0.4 ug/mL (human c-Met [18]): 802
3H-Thymidine Incorporation in Primary Human Hepatocytes in the Absence of HGF (average), dose 2 ug/mL (human c-Met [18]): 892
3H-Thymidine Incorporation in Primary Human Hepatocytes in the Absence of HGF (average), dose 10 ug/mL (human c-Met [18]): 1040
Tubular Morphogenesis Agonist activity (fold stimulation) in HepG2 cells, antibody 50 ug/ml (human c-Met [19]): 1.2 fold stimulation
Percent of DU145 Cells in Colonies (scatter assay), antibody 20 ug/mL (human c-Met [20]): 23.3%
Staurosporine-Induced Apoptosis in Caki-1 Cells, Average A450 nm, antibody dose 3 ng/mL (human c-Met [21]): 1.09 A450 nm
Staurosporine-Induced Apoptosis in Caki-1 Cells, Average A450 nm, antibody dose 30 ng/mL (human c-Met [21]): 1.02 A450 nm
Staurosporine-Induced Apoptosis in Caki-1 Cells, Average A450 nm, antibody dose 300 ng/mL (human c-Met [21]): 0.97 A450 nm
Staurosporine-Induced Apoptosis in Caki-1 Cells, Average A450 nm, antibody dose 3000 ng/mL (human c-Met [21]): 0.92 A450 nm
Staurosporine-Induced Apoptosis in Caki-1 Cells, Average A450 nm, antibody dose 30000 ng/mL (human c-Met [21]): 0.96 A450 nm
